Test results taken from patent publication US12178803B2, “CD47 blockade with PARP inhibition for disease treatment” (TRILLIUM THERAPEUTICS ULC, priority 2018, dated 2024).

Test: Systemic toxicity by clinical parameter scoring in the xenograft study
Format: in vivo
Conditions: SIRPαFc added to niraparib and/or RT
Procedure: Niraparib (50 mg/kg) was administered 1 hour prior to RT, 5 times per week for 1 week. Mice were treated with whole abdomen radiotherapy (external beam radiation therapy) at a dose of 2 Gy for 2 fractions using an image-guided small animal irradiator (225 kVp, 13 mA). Treatment was initiated on day 7 following tumor inoculation. Treatment efficacy was assessed by bioluminescent imaging (BLI) and animal survival. Systemic toxicity was evaluated by clinical parameter scoring.

In the case of “SIRPαFc: CD47 blocking fusion protein: IgV domain of human SIRPα V2 fused to a human IgG Fc region; preferred SEQ ID NO:8”, the “additional toxicity when combined with PARPi (niraparib) and/or RT” value is reported as “without showing additional toxicity”.
